Columns and labels:
[1] = tested on: CP1 (synthetic (de novo)); assay: spectral shift; conditions: Spectral shift: 10 mM Tris-HCl pH 8.0, 0.05% Tween 20, no added salt, 25 C, Cy5 oligo (20 nM stock), 30 min at RT; MST with oncogenic RNAs in human plasma-like …
[2] = tested on: AP2-short (synthetic (de novo)); assay: spectral shift; conditions: Spectral shift: 10 mM Tris-HCl pH 8.0, 0.05% Tween 20, no added salt, 25 C, Cy5 oligo (20 nM stock), 30 min at RT; MST with oncogenic RNAs in human plasma-like …
[3] = tested on: AP2 (synthetic (de novo)); assay: spectral shift; conditions: Spectral shift: 10 mM Tris-HCl pH 8.0, 0.05% Tween 20, no added salt, 25 C, Cy5 oligo (20 nM stock), 30 min at RT; MST with oncogenic RNAs in human plasma-like …
[4] = tested on: AP2-short Q to S (synthetic (de novo)); assay: spectral shift; conditions: Spectral shift: 10 mM Tris-HCl pH 8.0, 0.05% Tween 20, no added salt, 25 C, Cy5 oligo (20 nM stock), 30 min at RT; MST with oncogenic RNAs in human plasma-like …
[5] = tested on: CP2 (synthetic (de novo)); assay: spectral shift; conditions: Spectral shift: 10 mM Tris-HCl pH 8.0, 0.05% Tween 20, no added salt, 25 C, Cy5 oligo (20 nM stock), 30 min at RT; MST with oncogenic RNAs in human plasma-like …
[6] = tested on: AP2 QNQ to TNH (synthetic (de novo)); assay: spectral shift; conditions: Spectral shift: 10 mM Tris-HCl pH 8.0, 0.05% Tween 20, no added salt, 25 C, Cy5 oligo (20 nM stock), 30 min at RT; MST with oncogenic RNAs in human plasma-like …
[7] = tested on: CP1 (synthetic (de novo)); assay: MST; conditions: Spectral shift: 10 mM Tris-HCl pH 8.0, 0.05% Tween 20, no added salt, 25 C, Cy5 oligo (20 nM stock), 30 min at RT; MST with oncogenic RNAs in human plasma-like …
MYU lncRNA = conditions: fluorescence anisotropy binding assay, previous study; read-out: KD^hnRNPK, MYU lncRNA; cited from earlier work
Description: Figure 7 Assessment of the affinity of poly(C) RNA-binding peptides to cytosine-rich oncogenic RNA motifs. […] The KD^CP1s were measured using microscale thermophoresis in a human plasma-like medium. Cytosines predicted to be single-stranded within RNA ligands are highlighted in red. Cytosine-to-adenine substitution is highlighted in blue. The predicted secondary structures are available in Figure S11. The complete thermodynamic plots are shown in Figure S12. *The KD^hnRNPKs are the dissociation ...

Cdk6 3′UTR RNA = conditions: fluorescence anisotropy binding assay, previous study; read-out: KD^hnRNPK, Cdk6 3′UTR RNA; cited from earlier work
Description: To evaluate the synthetic ssRNA-binding peptide’s affinity for biologically derived RNA targets, we have chosen two cytosine-rich RNA motifs from the oncogenic Cdk6 3′UTR RNA and MYU lncRNA. These motifs have previously been identified as targets of hnRNPK,[45] and they both consist of extended cytosine repeats (>4 nt) within a necessary single-stranded region for the progression of colon cancer cells. […] The KD^CP1s were measured using microscale thermophoresis in a human plasma-like medium. Cytosines predicted to be single-stranded within RNA ligands are highlighted in red. Cytosine-to-adenine substitution is highlighted in blue. The predicted secondary structures are available in Figure S11. The complete thermodynamic plots are shown in Figure S12. *The KD^hnRNPKs are the dissociation ...

hnRNPK = hnRNPK (UniProt P61978); assay: fluorescence anisotropy; conditions: Spectral shift: 10 mM Tris-HCl pH 8.0, 0.05% Tween 20, no added salt, 25 C, Cy5 oligo (20 nM stock), 30 min at RT; MST with oncogenic RNAs in human plasma-like …; cited from earlier work

AAAAAAAAAAAA [poly(A) RNA]
binding signal (fold weaker than poly(C) RNA) [1]: 4 | Kd [2]: 82000 nM | Kd [3]: 18800 nM | Kd [4]: 115000 nM

CCCCCCCCCCCC [poly(C) DNA]
binding signal (fold weaker than poly(C) RNA) [1]: 7

CCCCCCCCCCCC [poly(C) RNA]
Kd [1]: 900 nM | Kd [5]: 1200 nM | Kd [6]: 120000 nM

GGCUCCCCCGACCUCUGUGCUCCCCUCCCCCGACCUCUGUGC [MYU lncRNA motif]
Kd [7]: 107 nM

AAAAAAAAAAAA [poly(A) DNA]
binding signal (fold weaker than poly(A) RNA) [3]: 2

hnRNPK: endogenous RNA-binding protein with KH domain, binds cytosine-rich RNA motifs
Kd (MYU lncRNA): 70 ± 7 nM | Kd (Cdk6 3′UTR RNA): 450 nM

poly(C) RNA / antisense DNA hybrid
binding signal (fold weaker than poly(C) RNA) [1]: 6

GGUCCCCCGCCUCAUUCGCCCCUCUGCUCCC [Cdk6 3'UTR RNA motif]
Kd [7]: 103 nM | Kd (hnRNPK): 450 nM
